Reference: doi:10.1101/2023.02.27.530324
“And” between values parts separate entries of the source, which are not always exact repeats. Equal values may be shown once.

How the values were obtained:
[1] = target: Enhygromyxa salina luciferase LuxA (Enhygromyxa salina); experiment: SAXS
[2] = target: Enhygromyxa salina luciferase LuxA (Enhygromyxa salina); experiment: SEC-MALS

In the case of “Enhygromyxa salina luciferase LuxA (enzyme)”, the percent of the protein as dimers [1] was 82%, the percent of the protein as tetramers [1] was 18% and the stoichiometry N [1] was 2 and 4. The stoichiometry N [2] was 2 and 4.
